The target of assay [1] is native sulfated human cationic trypsin purified from pancreatic juice (human). The assay is described as follows: dissociation rate assay (recovery of trypsin activity after dilution of the complex); complex of 11 nM SPINK1 and 10 nM trypsin formed for 1 h at 23 °C, diluted to 50-200 pM with 0.6 mM Z-Gly-Pro-Arg-AMC, 0.1 M Tris-HCl (pH 8.0), 150 mM NaCl, 1 mM CaCl2, 0.05% Tween 20, room temperature, followed for 1 h.

Assay [2] concerns the target nonsulfated human cationic trypsin purified from E. coli (human). The assay is described as above.
Assay [3] addresses native sulfated human cationic trypsin purified from pancreatic juice (human). The assay is described as follows: equilibrium binding assay (free trypsin activity on a fluorogenic substrate); fixed trypsin incubated with increasing SPINK1, 0.2 ml, 0.1 M Tris-HCl (pH 8.0), 150 mM NaCl, 1 mM CaCl2, 0.05% Tween 20, 15 h; free trypsin measured with Z-Gly-Pro-Arg-AMC; apparent KD, global fit of at least three experiments.

For assay [4], the target named is sulfated human cationic trypsin purified from the conditioned medium of transfected HEK 293T cells (human). The description is as above.
The target in assay [5] is nonsulfated human cationic trypsin purified from E. coli (human). The assay is described as above.
Assay [6] addresses nonsulfated human cationic trypsin purified from the conditioned medium of transfected HEK 293T cells (human). The description is as above.
Assay [7] has as its target native sulfated human cationic trypsin purified from pancreatic juice (human). The assay is described as follows: KD calculated from the rate constants (association and dissociation rate assays); KD(calc): equilibrium dissociation constant calculated from kon and koff of the activity-based rate assays.
The target of assay [8] is nonsulfated human cationic trypsin purified from E. coli (human). The description is as above.
In assay [9] the target is native sulfated human cationic trypsin purified from pancreatic juice (human). The assay is described as follows: equilibrium binding assay (free trypsin activity on a fluorogenic substrate); fixed trypsin incubated with increasing SPINK1, 0.2 ml, 0.1 M Tris-HCl (pH 8.0), 150 mM NaCl, 1 mM CaCl2, 0.05% Tween 20, 15 h; free trypsin measured with Z-Gly-Pro-Arg-AMC; apparent KD, global fit of at least three experiments. The source holds these as a separate data set.

Assay [10] has the same target. The assay is described as follows: discontinuous association rate assay (residual trypsin activity); 50 pM trypsin mixed with 500 pM SPINK1, 0.1 M Tris-HCl (pH 8.0), 150 mM NaCl, 1 mM CaCl2, 0.05% Tween 20, 23 °C; kon from the pseudo-first-order rate constant divided by the inhibitor concentration.
The target in assay [11] is nonsulfated human cationic trypsin purified from E. coli (human). Described as above.
The target is the same in assay [12]. The assay is described as follows: equilibrium binding assay (free trypsin activity on a fluorogenic substrate); fixed trypsin incubated with increasing SPINK1, 0.2 ml, 0.1 M Tris-HCl (pH 8.0), 150 mM NaCl, 1 mM CaCl2, 0.05% Tween 20, 15 h; free trypsin measured with Z-Gly-Pro-Arg-AMC; apparent KD, global fit of at least three experiments. This is another data set of the same source.

Assay [13] deals with native sulfated human cationic trypsin purified from pancreatic juice (human). The assay is described as follows: equilibrium binding assay (free trypsin activity on a fluorogenic substrate); as the equilibrium assay but K41N SPINK1 incubated with trypsin for 1 h; 0.1 M Tris-HCl (pH 8.0), 150 mM NaCl, 1 mM CaCl2, 0.05% Tween 20; apparent KD.

Substitutions are numbered along the chain they refer to. In names and notes the source's numbering stands.

B1: serine protease inhibitor Kazal type 1 (SPINK1), wildtype, C-terminal 10His tag (natural protein)
chain: DSLGREAKCYNELNGCTKIYDPVCGTDGNTYPNECVLCFENRKRQTSILIQKSGPC
As for B1, the results for the koff in [1] and in assay [2] were 5.48e-05 s⁻¹ and 8.2e-06 s⁻¹, respectively. For the same molecule, the Kd in assay [3] is 0.0622 nM; in assay [4], 0.0402 nM; in assay [5] it was 0.0011 nM; in assay [6], 0.0044 nM; in assay [7], 0.0158 nM; in assay [8], 0.0027 nM. In addition, the Kd in assay [9] is 0.0674 nM. The association rate constant (kon) (in general, the rate constant with which the complex forms) in assay [10] amounted to 3.5e+06 M⁻¹ s⁻¹; in assay [11], 3e+06 M⁻¹ s⁻¹.

B2: SPINK1 variant P55S, C-terminal 10His tag (natural protein)
chain: B1 chain with P32S
With B2, the Kd in [3] stood at 0.101 nM.

B3: SPINK1 variant N37S, C-terminal 10His tag (natural protein)
chain: B1 chain with N14S
Consider B3, for which the Kd in assay [3] was found to be 0.0869 nM.

B4: SPINK1 mutant Y43A (natural protein)
chain: B1 chain with Y20A
Turning to B4, the Kd stood at 0.0622 nM in [9] and 0.0203 nM in assay [12].

B5: SPINK1 variant N34S, C-terminal 10His tag (natural protein)
chain: B1 chain with N11S
Consider B5, for which the dissociation rate constant (koff) – broadly, the first-order rate constant of dissociation – in assay [1] came to 4.5e-05 s⁻¹; in assay [2], 7e-06 s⁻¹. The Kd in assay [3] was 0.0323 nM; in [4] it was 0.0375 nM; in [5] it was 0.0015 nM; in [6], 0.0047 nM; in [7], 0.0164 nM; in [8], 0.0013 nM. In addition, the kon in assay [10] came to 2.7e+06 M⁻¹ s⁻¹; in assay [11], 5.3e+06 M⁻¹ s⁻¹.

B6: SPINK1 variant R65Q, C-terminal 10His tag (natural protein)
chain: B1 chain with R42Q
As for B6, the Kd in assay [3] is 0.0592 nM.

B7: SPINK1 variant I42M, C-terminal 10His tag (natural protein)
chain: B1 chain with I19M
Turning to B7, the Kd in assay [3] is 0.2 nM.

B8: SPINK1 variant Q68R, C-terminal 10His tag (natural protein)
chain: B1 chain with Q45R
For B8, in assay [3], the Kd stood at 0.068 nM.

B9: SPINK1 variant K41N, C-terminal 10His tag (natural protein)
chain: B1 chain with K18N
For B9, the Kd in assay [13] was found to be 1290 nM.

B10: SPINK1 mutant Y43R (natural protein)
chain: B1 chain with Y20R
B10: the Kd in assay [9] came to 0.0271 nM; in [12], 0.104 nM.
